Laboratory results: patent US20140315251A1

Experiments:
[1] = target: Recombinant canine IL-31 produced in CHO cells (canine); assay: SPR (Biacore), IL-31 amine-coupled to the chip, mAb in solution, 1:1 fit
[2] = target: Recombinant canine IL-31 produced in CHO cells (canine); assay: cell-based or functional assay
[3] = target: Recombinant canine IL-31 produced in CHO cells (canine); assay: SPR (Biacore), IL-31 amine-coupled to the chip, mAb in solution, 1:1 fit; Biacore affinity (SPR); weak, about 0.5 uM; not active in the DH82 pSTAT assay
[4] = target: Recombinant canine IL-31 produced in CHO cells (canine)

Chain of Recombinant canine IL-31 produced in CHO cells (canine) (chain, as listed by the source limits assumed, form in doubt): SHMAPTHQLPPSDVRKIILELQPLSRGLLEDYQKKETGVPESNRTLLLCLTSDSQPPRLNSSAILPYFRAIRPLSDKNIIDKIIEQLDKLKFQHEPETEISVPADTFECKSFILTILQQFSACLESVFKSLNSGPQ

| Kd [1] | DH82 pSTAT Assay, Co-incubation IC50 [2] | DH82 pSTAT Assay, Pre-treatment IC50 [2] | Kd [3] | IC50 (inhibition of canine IL-31 induced pSTAT signaling in canine DH82 monocytes) [4] | Binder |
| --- | --- | --- | --- | --- | --- |
| 4.97 pM | 2.67 µg/ml | 3.35 µg/ml | – | – | 11E12 Heterochimera (antibody, V domains shown) VH: EVQLVQSGAEVKKPGASVKVSCKTSGYTFKYYDINWVRQAPGAGLDWMGWIFPGDGGTKYNETFKGRVTLTADTSTSTAYMELSSLRAGDIAVYYCARGGTSVIRDAMDYWGQGTLVTVSS VL: DIVLTQSPASLAVSLGQRATISCRASESVDNYGISFMHWYQQKPGQPPKLLIYRASNLESGIPARFSGSGSRTDFTLTINPVETDDVATYYCQQSNKDPLTFGAGTKLELKR |
| 147 pM | 2.7 µg/ml | 5.31 µg/ml | – | – | Caninized 11E12 FW2 (antibody, V domains shown) VH: EVQLVQSGAEVKKPGASVKVSCKTSGYTFKYYDINWVRQAPGAGLDWMGWIFPGDGGTKYNETFKGRVTLTADTSTSTAYMELSSLRAGDIAVYYCARGGTSVIRDAMDYWGQGTLVTVSS VL: DIVMTQTPLSLSVSPGEPASISCRASESVDNYGISFMHWYQQKPGQPPKLLIYRASNLESGVPDRFSGSGSGTDFTLRISRVEADDAGVYYCQQSNKDPLTFGAGTKLEIKR |
| – | – | – | 506000 pM | – | Caninized 11E12 (antibody, V domains shown) VH: EVQLVQSGAEVKKPGASVKVSCKTSGYTFKYYDINWVRQAPGAGLDWMGWIFPGDGGTKYNETFKGRVTLTADTSTSTAYMELSSLRAGDIAVYYCARGGTSVIRDAMDYWGQGTLVTVSS VL: DIVMTQTPLSLSVSPGEPASISCRASESVDNYGISFMHWFQQKPGQSPQRLIYRASNLESGVPDRFSGSGSGTDFTLRISRVEADDAGVYYCQQSNKDPLTFGAGTKLEIKR |
| 5.16 pM | 5.49 µg/ml | 5.18 µg/ml | – | – | Caninized 11E12 13 (antibody, V domains shown) VH: EVQLVQSGAEVKKPGASVKVSCKTSGYTFKYYDINWVRQAPGAGLDWMGWIFPGDGGTKYNETFKGRVTLTADTSTSTAYMELSSLRAGDIAVYYCARGGTSVIRDAMDYWGQGTLVTVSS VL: DIVMTQTPLSLSVSPGEPASISCRASESVDNYGISFMHWFQQKPGQSPQLLIYRASNLESGVPDRFSGSGSGTDFTLRISRVEADDAGVYYCQQSNKDPLTFGAGTKLEIKR |
| 0.893 pM | 1.61 µg/ml | 2.28 µg/ml | – | – | Mouse 11E12 (antibody, V domains shown) VH: QVQLQQSGAELVKPGASVKLSCKASGYTFKYYDINWVRQRPEQGLEWIGWIFPGDGGTKYNETFKGKATLTTDKSSSTAYMQLSRLTSEDSAVYFCARGGTSVIRDAMDYWGQGTSVTVSS VL: DIVLTQSPASLAVSLGQRATISCRASESVDNYGISFMHWYQQKPGQPPKLLIYRASNLESGIPARFSGSGSRTDFTLTINPVETDDVATYYCQQSNKDPLTFGAGTKLELK |
| 0.268 pM | 1.48 µg/ml | 1.57 µg/ml | – | – | Chimeric 11E12 (antibody, V domains shown) VH: QVQLQQSGAELVKPGASVKLSCKASGYTFKYYDINWVRQRPEQGLEWIGWIFPGDGGTKYNETFKGKATLTTDKSSSTAYMQLSRLTSEDSAVYFCARGGTSVIRDAMDYWGQGTSVTVSS VL: DIVLTQSPASLAVSLGQRATISCRASESVDNYGISFMHWYQQKPGQPPKLLIYRASNLESGIPARFSGSGSRTDFTLTINPVETDDVATYYCQQSNKDPLTFGAGTKLELKR |
| 29.1 pM | 2.42 µg/ml | 2.25 µg/ml | – | 2.29 µg/mL | Caninized 34D03 (antibody, V domains shown) VH: EVQLVESGGDLVKPGGSLRLSCVASGFTFSNYGMSWVRQAPGKGLQWVATISYGGSYTYYPDNIKGRFTISRDNAKNTLYLQMNSLRAEDTAMYYCVRGYGYDTMDYWGQGTLVTVSS VL: EIVMTQSPASLSLSQEEKVTITCKASQSVSFAGTGLMHWYQQKPGQAPKLLIYRASNLEAGVPSRFSGSGSGTDFSFTISSLEPEDVAVYYCQQSREYPWTFGQGTKLEIKR |
| – | – | – | – | 2.41 µg/mL | Felinized 34D03 (antibody, V domains shown) VH: DVQLVESGGDLVKPGGSLRLTCVASGFTYSNYGMSWVRQAPGKGLQWVATISYGGSYTYYPDNIKGRFTISRDNAKNTLYLQMNSLKTEDTATYYCVRGYGYDTMDYWGQGTLVTVSS VL: EIQMTQSPSSLSASPGDRVTITCKASQSVSFAGTGLMHWYQQKPGKVPKLLIYRASNLEAGVPSRFSGSGSGTDFTLTISSLEPEDAATYYCQQSREYPWTFGQGTKLEIKR |
| 1.01 pM | 1.73 µg/ml | 2.28 µg/ml | – | – | Mouse 34D03 (antibody, V domains shown) VH: EVQLVESGGDLVKPGGSLKLSCAASGFSFSNYGMSWVRQTPDKRLEWVATISYGGSYTYYPDNIKGRFTISRDNAKNTLYLQMSSLKSEDTAMYYCVRGYGYDTMDYWGQGTSVTVSS VL: DILLTQSPASLAVSLGQRAIISCKASQSVSFAGTGLMHWYQQKPGQQPKLLIYRASNLEAGVPTRFSGSGSRTDFTLNIHPVEEEDAATYFCQQSREYPWTFGGGTKLEIK |
| 4.65 pM | 1.28 µg/ml | 1.08 µg/ml | – | – | Chimeric 34D03 (antibody, V domains shown) VH: EVQLVESGGDLVKPGGSLKLSCAASGFSFSNYGMSWVRQTPDKRLEWVATISYGGSYTYYPDNIKGRFTISRDNAKNTLYLQMSSLKSEDTAMYYCVRGYGYDTMDYWGQGTSVTVSS VL: DILLTQSPASLAVSLGQRAIISCKASQSVSFAGTGLMHWYQQKPGQQPKLLIYRASNLEAGVPTRFSGSGSRTDFTLNIHPVEEEDAATYFCQQSREYPWTFGGGTKLEIKR |
| 7.24 pM | 1.76 µg/ml | 3.46 µg/ml | – | – | Mouse 19D07 (antibody, V domains shown) VH: EVKLVESGGGLVKPGGSLKLSCAASGFAFSSYDMSWVRQIPEKRLEWVATITSGGGYTYSADSVKGRFTISRDNARNTLYLQMSSLRSEDTAVYYCARQNWVVGLAYWGQGTLVTVSA VL: DIVMSQSPSSLSVSAGDKVTMSCKSSQSLLNSGNQKNYLAWYQQKPWQPPKLLIYGASTRESGVPDRFTGSGSGTDFTLTISSVQAEDLAVYYCQNDYSYPYTFGGGTKLEIK |
| 0.515 pM | 1.92 µg/ml | 1.33 µg/ml | – | – | Chimeric 19D07 (antibody, V domains shown) VH: EVKLVESGGGLVKPGGSLKLSCAASGFAFSSYDMSWVRQIPEKRLEWVATITSGGGYTYSADSVKGRFTISRDNARNTLYLQMSSLRSEDTAVYYCARQNWVVGLAYWGQGTLVTVSA VL: DIVMSQSPSSLSVSAGDKVTMSCKSSQSLLNSGNQKNYLAWYQQKPWQPPKLLIYGASTRESGVPDRFTGSGSGTDFTLTISSVQAEDLAVYYCQNDYSYPYTFGGGTKLEIKR |
| 923 pM | – | – | – | – | Caninized 19D07 (antibody, V domains shown) VH: EVQLVESGGDLVKPGGSLRLSCVASGFTFSSYDMSWVRQAPGKGLQWVATITSGGGYTYSADSVKGRFTISRDNARNTLYLQMNSLRSEDTAVYYCARQNWVVGLAYWGQGTLVTVSS VL: EIVMTQSPASLSLSQEEKVTITCKSSQSLLNSGNQKNYLAWYQQKPGQAPKLLIYGASTRESGVPSRFSGSGSGTDFSFTISSLEPEDVAVYYCQNDYSYPYTFGQGTKLEIKR |
